Experimental data taken from the nanobody polyreactivity screen of Harvey et al. (2022).

Assay: yeast display, Sf9 membrane polyspecificity reagent, FACS + sequencing; frameworks hold sequencing errors
Method in brief: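 Galactose induction of a Saccharomyces cerevisiae BJ5465 synthetic nanobody display library ran 36–48 hours. The cells were then stained for 1 hour at 4 °C with 10% biotinylated, detergent-solubilized Sf9 membrane reagent, pulled down on streptavidin microbeads and FACS-sorted into low and high (top ~1%) gates on expression and reagent-binding fluorescence. Labels for polyreactivity follow the gate of origin.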

| Sequence | polyreactivity (PSR sort gate) |
| --- | --- |
| QVQLVESGGGLVQAGGSLRLSCAASGFTFPGYTKGWYIQAPGKERELVATISRSGGSMFYADSVKGRFTISRDNAKNTVYLQMNSLKPEDTAVYYCNKSPSWWRYKTGLDYWGQGTQVTVSS | high polyreactivity |
| QVQLVESGGGLVQAGGSLRLSCAASGSIFRNYAMGWYRQAPGKERELVATIRYRGGRTYADSVKGRFTISRDNAKNTVYLQMNRLKPEDTAFYYCNTYARYAYLTGRMDYWGQGTQVTVSS | high polyreactivity |
| QVQLVESGGRLVQAGGSLRLSCAAYGSTFQVNAMGWYRQAPGKERELVAAISRGGGSTYYADSVKGRFTISRDNAKNTVYLQMNSLKPEETAVYYCAAVYYRRISQGDTQTYYQYNYWGQGTQVTVSS | high polyreactivity |
| QVQLVESGGGLVQAGGSLRLSCAASGRTFRANAMGWYRQAPGKERDLVAAITWDGGSTYYADSVKGRFTISRDNAKNTVYLQMNSLKPEDTAVYYCNTDPYLWGQGTQVTVSS | low polyreactivity |
| QVQLVESGGGLVQAGGSLRLSCAASGRTFSVYAMVWYRQAPGKERELVADITRRGGSTTYADSVKGRFTISRDNAKNTVDLQMNSLKPEDTAVYYFNADGKAGGDYDYWGQGTQVTVSS | low polyreactivity |
| QVQLVESGGGLVQAGGSLRLSCAASGRIFSRYAMGWYRQAHGKERELVAAISWSGGSTYYADSVKGRFTISRDNAKNTVYLQMNSLKPEDTAVYYCAARRSYSYGSWGQGTQVTVSS | high polyreactivity |
| QVQLVESGGGLVQAGGSLRLSCAASGSTSSVYTMGWYRPAPGKERELVASISIRGTRTYADSVKGRFTISRDNAKNTVYLQMNSLKPEDTAVYYCAARYPWYVYTIYGYWGQGTQVTVSS | high polyreactivity |
| QVQLVESGGGLVQAGGSLRLSCAASGRTFYRNAMGWYRQAPGKERELVGAISQSGGSTYYADSVKGRFKISRDNAKNTVYLQMNCLIPEDTAVYSCAAGKSRRVGMDYWGQGTQVTVSS | high polyreactivity |
| QVQLVESGGGLVQAGGSLRLSCAASGRIFYHYAMGWYRQAPGKERELVAASNSSGGSTHYADSVKGRFTISRDNAKNTVYLQMNSLKPEDTAVYYCAADGYWRDYSGYWDYYYIYDYWGQGTQVTVSS | low polyreactivity |
| QVQLVESGGGLVQAGGSLRLSCAASGYTFSFNAMGWYRKAPGKEREMVAAINRGTSTNYADSVKGRFTISRDNAKNTVYLQMNSLKPEDTAVYYCAAGFRRRAGRYDLDYWGQGTQVTVSS | high polyreactivity |
| QVQLVDSGGGLVQAGGSLRLTCAASGSTIYWYAMGWYRQAPGKERELVAAISSSGSTKYADSVKGRFTISRDNAKNNVYLQINSLKPEDTAVYYCAADVEYDRDVPQQVYVSDDYWGQGTKVTVSS | low polyreactivity |
| QVQLVESGGGLVQAGGSLRLSCAASGRIFSWNTMGWYRQAPGKERELVAAITQSGSTYYADSVKGRFTISRDNAKNTVYLQMNSLKPEDTAVYYCAAVVGRRLYPRYDYWGQGTQVTVSS | high polyreactivity |
| QVQLVESGVGLVQAGGSLRLICAASGRNFRTNAMGWYRQAPGKERELVAAISTGGGITKYADSVKGRFTISRDNSKNTVYLQMNSLKPEDTAVYYCAADAVNTLDYWGQGTQVTVSS | low polyreactivity |
| QVQLVESGGGLVQAGGSLRLSCAASGPIFSDYTMGWYRQAPGKERELVAVISRRGTSTYYADSVKGRFTISRDNAKNTVDLQMNSLKPEDTAVYYCAADDNTYKFYYWGQGTQVTVSS | high polyreactivity |
| QVQLVESGGGLVQAGGSLRLSCAPSGRIFYYYAKGWYRQAPGKERELVAAINSGGSTNYADSVKGRFTISRDNAKNTVYLQMNSLKPEDTAVYYCAADAKLVSEFDYWGQGTQVTVSS | low polyreactivity |
| QVQHVESGGGLVQAGGSLRLSCAASGRIMARNAMGWYRQAPGKERELVADISYSGGRTYYADSVKGRFTISRDNSKNTVYFQMNRLKQEDTAVYYCADSRSSRTYHDDYWGQGTQVTVSS | high polyreactivity |
| QVQLVESVGGLVQAGGSLRLICAASGSTFPSYAMGWYRQAPGKEREVVAAINSGGGTNYADSVKGRFTISRDNAKYTVYLQMNSLKPEDTAVYYCAKSRYDYTKTEGGYWGQGTQVTVSS | low polyreactivity |
| QVQLVESGGGLVQAGGSLRLSCAASGSTLLYYVMGWYRQAPGKERELVAAITGTGGRTYYADSVKGRFTISRDNAKNTVYLQMNSLKPEDTAVYYCAADGKFEYDYWGQGTQVTVSS | low polyreactivity |
| QFQLVESGRGLVQAGGSLRLSCASSGSTQKYAMGWYRQAPRKERELVAAIRRTGGSTYYADSVKGRFKISRDNAKNTVYLQMNSLKPEDTAVYYCAAYIWVAESYDWGQGTQVTVSS | low polyreactivity |
| QVQLVESGGGLVQAGVSLLLSCAASGRTFYANAMGWYSQAPGKEREFVAAISYGTGGTYYADSVKGRFTISRDNAKNTVYLQMNTLKPEDTAVYYCAASLYWGIYGWMGYWGQGTQVTVSS | high polyreactivity |
| QVQLVESGGGLVQAGGSLRLSCAASGRTFGQYAMGWYRQAPGKERQLVAAISTRGGSTYYADSVKGRFTISRDNAKNTVYLQMNSLKPEDTAVYYCAARPGWFAGYEYWGQGTQVTVSS | low polyreactivity |
| QVQLVESGGGLVHAGGSLRLSCAASGSIFDDYAMGWYRQAPGKERELVAAITSGGSTYYADSVKGRFTISRDNAKNTVYLQMNSLKTEDTAVYYRATRYHWSSCFAPVGAYGYWGLGTQVTVSS | low polyreactivity |

| Sequence | polyreactivity (PSR sort gate) |
| --- | --- |
| QVQVVESGGGLVQAGGSLRLSCAASGGIFYGYAMGWYRQAPGKERELVAAITSNGGTTYYADSVKGRFTISRDNAKNTVYLQMNSLKPEDTAVYYCDAYFKDSGSYYYWGQGTQVNVSS | low polyreactivity |
| QVQLVESGGGLVQAGGSLRLSCADSGSILIYNAMGWYRQAPGKERELVAGISRRGASTYYADSVKGRFTISRDNAKNTVSLQMNSLKQEDTAVYYCAALGKYIVAWSGDYWGQGTQVTVSS | low polyreactivity |
| QVQHVESRGGLVQAGGSLRLSCAASGRTFVRYAMGWYRQAPGKERELVAAISGDGASTYYADSVKGRFTISRDNAMNTVYLQMNSLKPEDTAVYYCNARSIRRYYYPDYDYWGQGTQVTVSS | high polyreactivity |
| QDQLVEAGGGLVQAGGSLRLSCAASRRTFWKYARGWYIQAPGKERELVAAISSSGGNTYYADSVKGRFTISRDNAKNTVYLQMNRLKPEDTAVYYCAAPLPRGAYFYWGQGTQVTVSS | high polyreactivity |
| QVQLVESGGGLVQAGGSLRLSCAASGRIFVVYAMGWYRQAPGKERELVAAITYGGGSTHYADSVKGRFTISRDNAKNTVYLQMNSLKPVDTAVYYCAADVYLVKYDYWGQGTQVTVSS | low polyreactivity |
| QVQLVESGGGLVQAGGSLRLSCAASGRTYRYAMGWYRQPPGKERELVAGISSSGTSTNYADSVKGRFTISRDNAKNTVYLQMNSLKPEDTAVYYCNADIIWFPADYLYDYWGQGTQVTVSS | low polyreactivity |
| QVQLVESGGGLVQAGGSLRLSCAASGSIVYPYAMGWNRQAPGKERELVAAITGHGGSTYYADSVKGRFTISRDNAKNTVYLQMNSMKPEDTAVYYCAAYRVVYSDAYYYWGQGTQVTVSS | low polyreactivity |
| QVQLVESGGGLVQAGGSLRLSCAASGFIFWEYAMGWYRQAPGKERELVAAISTSGGSTYYADSVKGRFTISRDNAKNTVYLQMISLKPEDTAVYYCAVDGWDDTYFRQDMDYWGQGTQVTVSS | low polyreactivity |
| QEQLVESVGGLVQARGSLRLSGAASGYTFKYNALGWYRPAPGKERELVAAITSGGSTNYADSVKGRFTISRDNAKNTVYLQMNSLKPEDTAVYYCAAAQPRTNAYRVGSWGQGTQVTVSS | high polyreactivity |
| QVQLEESGGGLVQAGGSLRLSSAASGRTLVHYAIGSYRQAPGKEREMVAAISIGGDSTYADSVKGRFTISRDNAKNTVYLQMNSLKPEDTAVYYCAASGWWDFFDPYFKFDYWGQGTQVTVSS | low polyreactivity |
| QVQLVESGGGLVQAGGSLRLSCAASGFTFKCYTMGWYRQAPGKERELVAGISRRGGSTYYADSVKGRFTISRDNAKNTVYLQMNSLKPEDTAVYDCAADSQLTKFYYWGQGSQVTVSS | high polyreactivity |
| QVQLVESGVGLVQAGGSLRLSCAASGSIFASYAMGWYRQAPGKERELVAAISRSGTSTRYADSVKGRFTISRDNAKNTVYLQMNSLKPEDTAVYYCAARWYVFFRKYDYWGQGTQVTVSS | high polyreactivity |
| QVQLVESGGGLVQAGGSLRLSCAASGSIFSVNAMGWYRQAPGKERELVATIRWSGSSTYYADSVKGRFTISRDNAKNSVYLQMKSLKPEDTAVYYCAADSTEIPWCGMDYWGQGTQVTLSS | low polyreactivity |
| QLQLVESGGGLVQAGGSLRLSCAASGSTFPLYAMGWYRQSPGKERELVASITTGGGNTYYADSVKGRFTISRDNAKNTVYLKMNSLKPEDTAVDYCAKPYHIGLSGRRTYDYWGQGTQVTVSS | high polyreactivity |
| QVQLVESGGGLVQAGGSLRLSCAASGRIFSSYAMGWYRQAPGKERELVADITGRYGSTYYADSVKGRFTISRDNAKNTVYLQMNSLKPEDTAVYYCAASRFYFPRTFGGYPKLASYAYWGQVTQVTVSS | low polyreactivity |
| QVQLVESGGGIVQAGGSLRFSCAASGSTFLYYAMGWYRLAPGKETEFVADISFSGGSTYYADSVKGRFTSSRDNAKNTVYLQMNSLKPEDTGVYNCAARKKEYKAGNYWGQGTQVNVSS | low polyreactivity |
| QVQLVESGGGLVQAGGSLRLSCAASGITIRLYAKGWYRQAPGKERELVAGISSGGSTYYADSVKGRFTISRDNAKNTFYLQMNSLKPEDTAVYYCAAVSYGRRRPQHFEYWGQGTQVTVSS | high polyreactivity |
| QVQLVESGGGLVQAGGSLRLSCAASGRIFGWYAMGWYRQAPGKERELVAAISSSGVSTNYADSVKGRFTISRDNAKNTVYLQMNSLKPEDTAVYYCIARGFYWYRPYVNSNGGYWGQGTQVTVSS | high polyreactivity |
| QVQLVESGGCLVQAGGSRRLSCAASGLTIYHYAMGWYRQATGKERELVAAITNGYSTYYADSVKGRFTISLDNAMNTVYLQMNSLKPEDTAVYSCNADQPGDQHSGYWGQGTQVTVSS | low polyreactivity |
| QVQLVESGGGLVQAGGSLRLSCAASGLIFGGYAMGWYRQAPGKERELVATITSGGSTNYADSVKGRFTISRDNAKNTVYLQMNSLKPEDTAVYYCAAAERQGFPSVYPTYQWDYDYWGQGTQVTVSS | low polyreactivity |
| QVQLVESGGGLVQAGGSLRLSCAASGSIFGANVMGWYRQAPGKERELVAGITGSGGSTYADSVKGRFTISRDNAKNTVYFQMNSLKPEDTAVYYCNADTQFALVADFDYWGQGTQVTVSS | low polyreactivity |
